Test results taken from patent US20220177583A1.

Columns and labels:
[1] = biological target: human CLDN6 fused to GFP, expressed on engineered HEK293T cells (human) (UniProt P56747); test: FACS, 293T clone with human CLDN6, 1.5 ug Ab
[2] = biological target: human CLDN6 fused to GFP, expressed on engineered HEK293T cells (human) (UniProt P56747); test: FACS, 293T clone with human CLDN6, 0.3 ug Ab
[3] = biological target: T1, mouse CLDN6 fused to GFP, expressed on engineered HEK293T cells (mouse) (UniProt Q9Z262); test: FACS, 293T clone with mouse CLDN6
T1 sequence (looked up): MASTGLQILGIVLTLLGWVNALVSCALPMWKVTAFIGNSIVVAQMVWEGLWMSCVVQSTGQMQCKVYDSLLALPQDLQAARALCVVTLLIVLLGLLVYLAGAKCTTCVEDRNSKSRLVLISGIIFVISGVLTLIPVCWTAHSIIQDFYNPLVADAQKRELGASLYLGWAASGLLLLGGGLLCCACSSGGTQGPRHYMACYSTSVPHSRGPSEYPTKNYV

B1: AB4-chim (antibody, V domains shown)
VH: QVQLQQSGAELARPGASVKMSCKASGYTFTSYTMHWIKQRPGQGQEWIGYINPSSTYTHYIKKFKDKATLTADKSSSTAYMQLRSLTSEDSAVYYCSRGELGGFAYWGQGTLVTVSA
VL: DVVMTQTPLSLPVSLGDQASISCRSSQSLVHSDGNTYLNWYLQKPGQSPKLLIYKVSNRFSGVPDRFSGSGSGTDFTLKIRRVEAEDLGVYFCSQSTHVPYTFGGGTKLEIK
FACS signal [1]: 327000 | FACS signal [2]: 176000 | FACS signal [3]: 3640
